Test: yeast display, Sf9 membrane polyspecificity reagent, FACS + sequencing; frameworks hold sequencing errors
Procedure, shortened: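 Nanobodies from a synthetic yeast display library (Saccharomyces cerevisiae BJ5465), induced 36–48 hours with galactose, were stained 1 hour at 4 °C with 10% biotinylated, detergent-solubilized Sf9 membrane reagent, enriched on streptavidin microbeads, then FACS-sorted. Anti-HA (expression) and streptavidin (reagent binding) fluorescence set low and high (top ~1%) gates. Polyreactivity labels come from the gate of origin. Genes were colony-PCR amplified, MiSeq 2 × 250 sequenced and filtered by CDR length.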

| Sequence | polyreactivity (PSR sort gate) |
| --- | --- |
| QVQLVESGAGLVQAGGSLRLSCAASGFIFYYYAMGRYRPAPGKERELVAAIDSSGGDTYFADSVKGRFSISRDHAKNTVYLQMNSLKPEDTAVYYCNARQRLISLYGNRLTYGYWGQGTQVTVSS | high polyreactivity |
| QVQLVESGGGLVQAGGSLRLSCAASGRIFEVYDMGWYRQAPGKERELVAAISESDDNTYYADSVKGRFTISRDNAKNTVYLQMNSLKPEDTAVYYCNADVPGDTGWWGFDYWGQGTQVTVSS | low polyreactivity |
| QVQLVESGGGLVQAGGSLRLSCAASGRIFYSNAMGWYRQAPGKAWELVATISRRGGRTYSADSVKGRFTLSRDIAKNTVYLQMNSLKPEDTAVYYCNANDRNAGSSRGGRLYDSWGQGTQVTVSS | high polyreactivity |
| QVQLVESGGGLVQAGGSLRLSCAASGITFPYYTMGWYRQAPGKERELVATIRNGGSTYYADSVKGRFTISRDNAKNTVYLQMNSMKPEDTAVYYCAAVPLWDYKFFYYLLYDYWGQGTQVTVSS | low polyreactivity |
| QVQLVESGGGLVQAGGSLRLSCAASGLIFPWNAMGWYRQAPGKERELVAAINGRDGSTYYADSVKGRFTISRDNAKNTVYLQMNSLKPEDTAVYYCAKGPSGVRTYREYDSWGQGTQVTVSS | low polyreactivity |
| QVQLVESGGGLVQAGGSLRLSCAASGSIISRNAMGWYRQAPGKERELVATIRYRGGSTYYADSVKGRFTISRDNAKNTVYLQMNSLKPEDTAVYYCAARRSHPPDPRFRYGYWGQGTQVTVSS | high polyreactivity |
| QVQLVESGGGLVQAGGSLRLSCAASGRTFAYNDMGWYRQAPGKERELGAAISWSDGTTYYADSVKGRFTISRDNAKNTVYLQMYSLKPEDTAVYYCNADDYLTSIYRYDYWGQGTQVTVSS | low polyreactivity |
| QVQLVESGGGLVQAGGSLRLSCAASRYTFTLYAMGWYRKAPGKEWELLAAISRSGGSTYYADSVKGRFTISRDNAKITVYLQMNSLKPEDTAVYYCAADKYFAWGYPSGLWYDYWGQGTQVTVSS | high polyreactivity |
| QVQLVESGGGLVQAGGSLRLSCAASGSISGRNTMGWYRQAPGKERELVAAISWSGGSTYYADSVKGRFTISRDNAKNTVYLQMNSLKPEDTAVYYCAARNWRGVGGGVGRYGYWGQGTQVTVSS | high polyreactivity |
| QVQLQESGGGLVQAGGSLRLSCAASGTISPLPAMGWYRQAPGKEREFVAGIDTGAITNYADSVKGRFTISRDNAKNTVYLQMNSLIPEDTAVYYCAVFPAAYDYYERYYTYWGQGTQVTVSS | low polyreactivity |
| QVQLVESGGGLVQAGGSLRLSCAASGRTFKFYAMGWYRQAPGKERELVARITSNSGSTYYADSVKGRFTISRDNAKHTVYLQLNSLKPEETAVYYCNARYGYTYRTFRYDYWGQGSQVTVSS | high polyreactivity |
| QVQLVESGGGIVQAGGSLRLSCAASGRTFDWYAMGWSRQAPGKERELVAAIDSIGGDTYYADSVKGRFTISRDNAKNTVYLQMNSLKPEDTAVYYCAALPWYDWEYEYWGQGTQVTVSS | high polyreactivity |
| QVQLEESGGGLVQAGGSLRLSCAASGRTSRVYAMGWYRQAPGKERELVAAITWRGGNTYYADSVKGRFTISRDNAKNTVYLQMNSLKPEDTAVYYCARDNGSPYHYYYWGQGTQVTVSS | high polyreactivity |
| PVQLVESGGGLGQAGGSLRLSCAASGRIFYLYAMGWYRQAPGKERELVATIDSSGDSTFYADSVKGRFTISRDNAKNTVYLQMNSLKPEDTAVYNCAADEVSSYDYGYKGRYDYWGQGTQVTVSS | low polyreactivity |
| QVQLVESGGGLVQAGGSLRLSCAASGRTFTGYTKGWYRQAPGKEREFVAAISSNGGRTYYADSVKGRFTISRDNAKNTVYLQMNSLKPEDTAVYYCAARYTFWGQGTQVTVSS | high polyreactivity |
| QVQVVESGGGLVQAGGSLRLSCAASGYIINQYTMGWYRQAPGKERELVADNSSGGSTTYADSVKGRFTISRDNAKNTVYLQMNSLKTEHTAVYYCNAEYDSGSPTAYDWEYDYWGHGTQVTVSS | high polyreactivity |

| Sequence | polyreactivity (PSR sort gate) |
| --- | --- |
| QVQLVESGGGLVQAGGSLRLSCDASGRTFNYNAMGWYRQAPGKERELVAAISGNGGNTYYADSVKWRFTISRDNAKNTVYLQMNSLKPEDTAGYYCNAVYRYYREWKYDYWGQGTQVTVSS | high polyreactivity |
| QVQLGESRGGLVQAGGSLRLSCAASGRTFTGYAMGWYRQAPGKERELVAAITVSSGRTYYADSVKGRFTISRDNAKNTVYLQMNSLKPEDTAVYYCAKRFRSTHLWKFGGYDYWGQGTQVTVSS | high polyreactivity |
| QVQLVESGGGLVQAGGSLRLSCAASGSIFDINAMGWYRQAPGKERELVADISWSGGRTYYADSVKGRFTISRDNAKNTVYLQMNSLKPEDTAVYYCNAQDSRFWYAEYDYWGQGNQVTVSS | low polyreactivity |
| QVQLVESGGGLVQAGGSLRLSCAASGRTFHKYAMGWYRQAPGKEWELVAAISNGGRTYYADSVKGRFTISRDNAKNTVYLQMNSLKPEDTAVYYCNADRTWKGRQYDYWGQGTQVTVSS | high polyreactivity |
| QVQLVESGGGLVQAGGSLRLSCAASGITFTVNAMGWYRQSPGKERELVAAISWSGGSTYYADSVKGRFTISRDNAKNTVYLQMNSLKPEDTAVYYCNAVLYRFAYNYWGQGTQVTVSS | low polyreactivity |
| QVQLVESGGGLVQAGGSLRLSCAASGLTFYKNAMGWYSQAPGKERELVAAITQSGGSTYYADSVKGRFTISRDNAKNTVYLQMNSLKPEDTAVYYCAAATYLNGNNYYWGQGTQVTVSS | high polyreactivity |
| QVQLVESGGGLVQAGGSLRLSCAASGRTFESYAMGWYRQAPGKERELVAAITWSGGDTYYADSVKGRFTISRDNAKNSVYLQMNSLKPEDTAVYYCAKEQGLYSVSPYDYWGQGSQVTVSS | low polyreactivity |
| QVQLVESGGGLVQAGGSLRLSCAASGSIFSYYAMGWYRQAPGKERELVAAISYSGSDTYYADSVKGRFTISRDNAKNTVSFQMNSLKPEDTAVYYCAAEDPSYSYHYWGQGTQVTVSS | low polyreactivity |
| QVQLVESGGVLVQAGGSLRLSCAASGSTFWLYAMGWNRQAPRKERELVAAITRSGGRTNYADSVKGRFTISRDNAKNTVYLQMNSLKPEDTAVYYCAAEYLGVSYNNWAYDFWGQGTQVTVSS | low polyreactivity |
| QVQLVESGGGLVQAGGSLRLSCAASGSIFGVYAMGWYRQAPGKERELVASITSGSSTNYADSVKGRFTISRDNAKNTVYLQMNSLKPEDTAVYYCAAGRTSRSRRYYRFFYAGDYWGQGTQVTVSS | low polyreactivity |
| QVQLLESGGGLVQAGGSLRLSCASSGRTFVYYAMGRYRQAPGKERELVAAITFSGGSTYYADSVKGRFTISRDNAKNTVYLQMNSLKPEDTAVYYCAAQYRYSYPLGDYWGQGPQVTVSS | low polyreactivity |
| QVQLVESGGGLVQAGGSLRLSCAASGSIFTNYPMGCYRQAPGKERELVAAISQSGDTTYYADSVKGRFTISRDNAKNTVYLQMNSLKPEDSSVYYCAAQYYRWFYYWGQGTQVTVSS | high polyreactivity |
| QVQLVESGGGLVQAGGSLRLSCAASGRTFYGYAMGWSRPAPGKERELVAAISTGGSTSYADSVKGRFTISRDNAKNTVYLQMNSLKPEDTAVYYCAAVYYLTDWYGVWYSFDYWGQGTQVTVSS | low polyreactivity |
| QVQLVESGGGLVQAGGSLRLSCAASGSNFRFYVMGWYRQAPGKERELVAAISIGGSTNYADSVKGRFTISRDNAKNSVYLQMNSLKPEDTAVYYCAADYWYGAGLPHGTEFDYWGQGTQVTVSS | low polyreactivity |
| QVQLVESGGCLVQAGGSLRLSCAASGSIITWNAMVWYRQAPGKERELVAAIDWDGGSTYYADSVKGRFTISRDNAKNTVYLQMHILKPEDTAVYYCAATYGWYTVRYPSGHYYYWGQGTQVTVSS | low polyreactivity |
